Assay [1] deals with T1, human 4Ig-B7-H3 (h4IgB7H3) expressed on Raji cells (human, UniProt Q5ZPR3 29-534).
T1 construct: whole, on cells; also called h4IgB7H3-Raji
T1 sequence (looked up): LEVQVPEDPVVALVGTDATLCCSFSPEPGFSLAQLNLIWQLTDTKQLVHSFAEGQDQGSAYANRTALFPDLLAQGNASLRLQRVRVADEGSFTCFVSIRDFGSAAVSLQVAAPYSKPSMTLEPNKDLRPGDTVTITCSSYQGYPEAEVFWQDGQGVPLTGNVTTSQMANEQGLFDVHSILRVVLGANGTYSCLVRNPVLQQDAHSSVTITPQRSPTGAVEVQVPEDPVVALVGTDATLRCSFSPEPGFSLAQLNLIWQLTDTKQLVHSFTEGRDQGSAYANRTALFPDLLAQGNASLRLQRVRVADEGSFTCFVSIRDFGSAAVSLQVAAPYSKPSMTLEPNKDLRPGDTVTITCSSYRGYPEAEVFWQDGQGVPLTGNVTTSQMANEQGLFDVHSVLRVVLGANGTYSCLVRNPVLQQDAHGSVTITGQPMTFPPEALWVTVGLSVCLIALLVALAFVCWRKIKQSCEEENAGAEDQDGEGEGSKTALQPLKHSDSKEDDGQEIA
Kind of assay: flow cytometry on h4IgB7H3-Raji cells. In general terms: A flow cytometer gives signals particle by particle.

Assay [2] has as its target T2, murine 2Ig-B7-H3 (m2IgB7H3) expressed on Raji cells (mouse, UniProt Q8VE98 29-316).
T2 construct: whole, on cells; also called m2IgB7H3-Raji; mB7-H3-Raji
T2 sequence (looked up): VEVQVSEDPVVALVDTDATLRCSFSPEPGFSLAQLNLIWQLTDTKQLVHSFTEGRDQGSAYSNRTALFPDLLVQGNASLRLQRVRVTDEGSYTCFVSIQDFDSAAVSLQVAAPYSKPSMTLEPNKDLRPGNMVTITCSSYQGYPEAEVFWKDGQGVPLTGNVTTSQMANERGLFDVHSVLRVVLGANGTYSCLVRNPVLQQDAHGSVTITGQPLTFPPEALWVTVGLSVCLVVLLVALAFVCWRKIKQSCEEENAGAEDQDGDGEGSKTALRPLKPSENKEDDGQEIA
In words: flow cytometry on m2IgB7H3-Raji cells.

Assay [3] has as its target B7-H3-His recombinant protein (UniProt Q5ZPR3). Kind of assay: SPR; B7-H3-His on CM5 chip, antibody as mobile phase.

Residue numbers refer to the chain shown, from its start.

B1: humanized B7-H3 antibody T1H1-T1L1 (αhB7-H3 antibody) (antibody, V domains shown)
VH: EVQLVESGGGLIQPGGSLRLSCAASGFTFSTYVMSWVRQAPGKGLEWVSSILSGGTSFYADNVKGRFTISRDNSKNTLYLQMNSLRAEDTAVYYCARRYGHDHYYAMDYWGQGTLVTVSS
VL: EIVLTQSPATLSLSPGERATLSCAASSSVSSSYLHWYQQKPGLAPRLLIYSTSNLASGIPDRFSGSGSGTDFTLTISRLEPEDFAVYYCQQYHRSPWTFGGGTKVEIK
notes: They were subcloned into the pcDNA3.1-IgG1Fc (heavy) and pcDNA3.1-IgKc (light) expression vectors; The antibody was detected with anti-human IgG; also called αhB7-H3 Ab; B7-H3 T1H1-T1L1
On to B1, for which, in assay [1], the binding result was “binds”. Moreover, the binding result in assay [2] is recorded as “binds”. Besides, in assay [3], the Kd was found to be 114 nM, the koff was found to be 0.00282 s⁻¹ and the kon was found to be 24800 M⁻¹ s⁻¹.

B2: humanized B7-H3 antibody T2H1-T2L1 (βhB7-H3 antibody) (antibody, V domains shown)
VH: B1 VH with L11V, I12V, Q13R, S74A, T77S, V92L, Y94H, L115T
VL: DIQMTQSPSTLSASVGDRVTITCAASSSVSSSYLHWYQQKPGKAPKLLIYSTSNLASGVPSRFSGSGSGTEFTLTISSLQPDDFATYYCQQYHRSPWTFGQGTKLEIK
Consider B2, for which, in assay [3], the Kd was 72.8 nM, the koff is 0.00289 s⁻¹ and the kon was 39700 M⁻¹ s⁻¹.

B3: mouse anti-human mB7-H3 antibody (antibody, V domains shown)
VH: EVTLVESGGGLVKPGGSLKLSCAASGFTFSTYVMSWVRQTPEKRLEWVASILSGGTSFYADNVKGRFTISRENARNILYLQMSSLKSEDTAMYYCVRRYGHDHYYAMDYWGQGTSVTVSS
VL: QIVLTQSPANMSASLGERVTMTCAASSSVSSSYLHWYQQKPGSSPKLWIYSTSNLASGVPGRFNGSGSGTSYSLTISSMEAEDAATYYCHQYHRSPWTFGGGTKLEIK
For the molecule B3, in assay [3], the Kd is 70.8 nM, the koff came to 0.00258 s⁻¹ and the kon was 36400 M⁻¹ s⁻¹.

Broadly, the Kd is the equilibrium constant for the complex coming apart. What is called koff is the first-order rate constant of dissociation. A word on the kon: it is a measure of how fast the partners come together.

These data come from patent EP4279506A1 (Persongen Biotherapeutics (Suzhou) Co., Ltd., dated 2023).
